Source: patent publication US20190135915A1 (SYNTIMMUNE, published 2019)
Numbering of substitutions follows the chain as printed. Names and notes keep the numbering of the source. One block for each binder: values may come before it.

How the values were obtained:
[1] = molecular target: T1, FcRn (analyte in the Biacore T200 study) (human, UniProt P55899 24-297; P61769 21-119, limits assumed); assay: SPR Biacore T200, antibody amine-coupled to CM5, FcRn analyte, 1:1 model; pH not stated
T1 construct: also called human FcRn
Protocol: (§1) Antibodies were immobilized onto a Series S CM5 sensor chip surface using standard amine coupling chemistry and analyte (FcRn) flowed over the surface. A 2-fold dilution range was selected from 50-0.01 nM FcRn. The association phase of FcRn analyte was monitored for 450 seconds, and dissociation was initially measured for either 250 or 2500 seconds, at 40 μl/min Fc1 was a reference channel and was subtracted from other flow cells to correct for non-specific binding. […] Kinetic values are based on a 1:1 binding model (Table 5).

[2] = molecular target: T2, recombinant human FcRn (Sino Biological Inc. Cat. No. CT009-H08H) (human, UniProt P55899 24-297; P61769 21-119); assay: competition ELISA, pH 6.0: test IgG4 (stable NS0) titrated against fixed biotinylated murine parent antibody on recombinant human FcRn; streptavidin-HRP/TMB, OD450 [bottom panel]
T2 construct: also called immobilized FcRn
Protocol: (§2) The IgG4 antibodies were tested for antigen binding in a competition ELISA at pH 6.0 and pH 7.4. A Nunc Immuno MaxiSorp 96 well flat bottom microtitre plate (Fisher, cat. no. DIS-971-030J) was pre-coated with 1 μg/ml of an FcRn antibody specific for an IgG-binding epitope distinct from the albumin-binding region overnight at pH 7.4. The following day, 1 μg/ml recombinant human FcRn (Sino Biological Inc. cat. no. CT009-H08H) diluted in PBS pH 7.4 was added to the wells and incubated for 1 hour at 37° C. After washing the plates 3× with PBST pH 7.4, the plates were blocked with PBSM pH 7.4 for 1 hour at 37° C. From this point onwards, all wash and incubation steps were performed at the chosen assay pH (pH 6.0 or 7.4). […] The reaction was stopped with 3 M HCl, absorbance read at 450 nm on a Dynex Technologies MRX TC II plate reader and the binding curves plotted.
(§3) NS0 produced humanized affinity matured IgGs were used in all assays other than G50_C10/Vκ3), which was purified from transiently expressing HEK cells.

[3] = molecular target: T2, recombinant human FcRn (Sino Biological …); assay: competition ELISA, pH 7.4: test IgG4 (stable NS0) titrated against fixed biotinylated murine parent antibody on recombinant human FcRn; streptavidin-HRP/TMB, OD450 [bottom panel]
Protocol: as §2, §3

[4] = molecular target: T3, monomeric His-tagged hFcRn (human, UniProt P55899 24-297; P61769 21-119, limits assumed); assay: SPR Biacore 3000, antibody amine-coupled to CM5, His-tagged hFcRn analyte, pH 6.0, 25 C, 1:1 Langmuir
T3 construct: also called human FcRn; not shown: His tag
Protocol: (§4) The coupling was performed by injecting 2 μg/ml of each protein into 10 mM sodium acetate, pH 4.5 (GE Healthcare), using the amine coupling kit (GE Healthcare). HBS-P buffer pH 7.4 (0.01 M HEPES, 0.15 M NaCl, 0.005% surfactant P20) or phosphate buffer pH 6.0 (67 mM phosphate buffer, 0.15 M NaCl, 0.005% Tween 20) were used as running buffer and dilution buffer. […] All SPR experiments were conducted at 25° C. with a flow rate of 40 μl/min Binding data were zero-adjusted, and the reference cell value subtracted. The Langmuir 1:1 ligand binding model provided by the BIAevaluation software (version 4.1) was used to determine the binding kinetics. The closeness of the fit is described by the statistical value χ².

[5] = molecular target: T2, recombinant human FcRn (Sino Biological …); assay: competition ELISA, pH 6.0: test IgG4 (stable NS0) titrated against fixed biotinylated murine parent antibody on recombinant human FcRn; streptavidin-HRP/TMB, OD450 [middle panel]
Protocol: as §2, §3

[6] = molecular target: T2, recombinant human FcRn (Sino Biological …); assay: competition ELISA, pH 7.4: test IgG4 (stable NS0) titrated against fixed biotinylated murine parent antibody on recombinant human FcRn; streptavidin-HRP/TMB, OD450 [middle panel]
Protocol: as §2, §3

[7] = molecular target: T3, monomeric His-tagged hFcRn; assay: SPR Biacore 3000, antibody amine-coupled to CM5, His-tagged hFcRn analyte, pH 7.4, 25 C, 1:1 Langmuir
Protocol: as §4
The kinetic rate constants were obtained using a simple first-order (1:1) Langmuir bimolecular interaction model. The kinetic values represent the average of duplicates. The χ² (chi-square) values represent the fit to the binding model used.

[8] = molecular target: T1, FcRn (analyte in the Biacore T200 study); assay: SPR Biacore T200, antibody amine-coupled to CM5, FcRn analyte, 1:1 model; chip with the three best variants (repeat run, dissociation 4500 s per paragraph 156); pH not stated
Protocol: as §1

[9] = molecular target: T2, recombinant human FcRn (Sino Biological …); assay: competition ELISA, pH 7.4; competitor biotinylated parent murine antibody; captured recombinant human FcRn; HEK-expressed IgG4
Protocol: as §2

[10] = molecular target: T2, recombinant human FcRn (Sino Biological …); assay: competition ELISA, pH 6.0; competitor biotinylated parent murine antibody; captured recombinant human FcRn; NS0-expressed IgG4
Protocol: as §2, §3

[11] = molecular target: T2, recombinant human FcRn (Sino Biological …); assay: competition ELISA, pH 6.0; competitor biotinylated parent murine antibody; captured recombinant human FcRn; HEK-expressed IgG4
Protocol: as §2

[12] = molecular target: T1, FcRn (analyte in the Biacore T200 study); assay: SPR Biacore T200; KD of humanized parent VH1/Vκ1 divided by KD of the test antibody on the same chip
Protocol: as §1

[13] = molecular target: T2, recombinant human FcRn (Sino Biological …); assay: competition ELISA, pH 7.4; competitor biotinylated parent murine antibody; captured recombinant human FcRn; NS0-expressed IgG4
Protocol: as §2, §3

[14] = molecular target: T2, recombinant human FcRn (Sino Biological …); assay: competition ELISA, pH 7.4: test IgG4 (transient HEK) titrated against fixed biotinylated murine parent antibody on recombinant human FcRn; streptavidin-HRP/TMB, OD450
Protocol: as §2

[15] = molecular target: T1, FcRn (analyte in the Biacore T200 study); assay: SPR Biacore T200, antibody amine-coupled to CM5, FcRn analyte, 1:1 model; chip with the three best variants (repeat run, dissociation 4500 s per paragraph 156); pH not stated; repeat run of the three best variants, dissociation 4500 s
Protocol: as §1

[16] = molecular target: T2, recombinant human FcRn (Sino Biological …); assay: competition ELISA, pH 6.0: test IgG4 (stable NS0) titrated against fixed biotinylated murine parent antibody on recombinant human FcRn; streptavidin-HRP/TMB, OD450 [top panel]
Protocol: as §2, §3

[17] = molecular target: T2, recombinant human FcRn (Sino Biological …); assay: competition ELISA, pH 7.4: test IgG4 (stable NS0) titrated against fixed biotinylated murine parent antibody on recombinant human FcRn; streptavidin-HRP/TMB, OD450 [top panel]
Protocol: as §2, §3

Kd [1]: 1.11 nM | IC50 (read off the curve) [2]: ~0.2 µg/mL | IC50 (read off the curve) [3]: ~0.5 µg/mL | Kd [4]: 1.7 nM
B1: G49_H9.3/Vκ3 (antibody, V domains shown)
VH: EVQLVESGGGLVKPGGSLKLSCAASGFTFSDYGMHWVRQAPGKGLEWVAYISSGSSTIYYADTVKGRFTISRDNAKNTLYLQMNSLRAEDTAMYYCARFDSLSTVGDYWGQGTSVTVSS
VL: DIVMTQSPDSLSASVGDRVTITCKASQSVSNDVAWYQQKPGQPPKLLIYYASNRYTGVPDRFSGSGYGTDFTLTISSLQAEDVAVYFCQQDYSSLTFGQGTKLEIK
notes: Bivalent IgG4 with S241P, human kappa; also called SYNT002-21; G49_H9.3 VH1

IC50 (read off the curve) [5]: ~0.3 µg/mL | IC50 (read off the curve) [6]: ~0.5 µg/mL | Kd [4]: 0.7 nM | Kd [7]: 7.8 nM | Kd [8]: 0.39 nM
B2: G15_C3/Vκ3 (antibody, V domains shown)
VH: B1 VH with F99G, D100E, L102T, S103T
VL: B1 VL
notes: Bivalent IgG4 with S241P, human kappa; also called SYNT002-3; G15_C3 VH1

Kd [1]: 1.99 nM
B3: G52_G9/Vκ3 (antibody, V domains shown)
VH: B1 VH with S101T, L102P
VL: B1 VL
notes: Bivalent IgG4 with S241P, human kappa; also called G52_G9 VH1

Kd [1]: 3.71 nM | IC50 (read off the curve) [2]: ~0.3 µg/mL | Kd [7]: 34 nM
B4: G54_D11/Vκ3 (antibody, V domains shown)
VH: B1 VH with S101T, L102P, S103A
VL: B1 VL
notes: Bivalent IgG4 with S241P, human kappa; also called SYNT002-17; G54_D11 VH1

Kd [1]: 2.09 nM | koff [1]: 0.000814 s⁻¹ | kon [1]: 389000 M⁻¹ s⁻¹ | Average relative IC50 (relative to humanized parent) [9]: 0.7 | Average relative IC50 (relative to humanized parent) [10]: 0.84 | Average relative IC50 (relative to humanized parent) [11]: 0.8 | Fold difference in KD [12]: 1.2 fold | Average relative IC50 (relative to humanized parent) [13]: 0.89
B5: G47_H6/Vκ3 (antibody, IgG4, V domains shown)
VH: B1 VH with D100S
VL: B1 VL
notes: IgG4 with S241P, human kappa; also called G47_H6 VH1

Kd [1]: 1.21 nM | Average relative IC50 (relative to humanized parent) [10]: 0.8 | Average relative IC50 (relative to humanized parent) [11]: 0.8 | Average relative IC50 (relative to humanized parent) [13]: 0.87
B6: G49_H9.5/Vκ3 (antibody, V domains shown)
VH: B1 VH with F99L, D100E, S101A, L102V, T104A
VL: B1 VL
notes: Bivalent IgG4 with S241P, human kappa; also called G49_H9.5 VH1

Kd [1]: 0.33 nM | IC50 (read off the curve) [14]: ~0.2 µg/mL | Kd [15]: 0.24 nM | IC50 (read off the curve) [16]: ~0.3 µg/mL | IC50 (read off the curve) [17]: ~0.5 µg/mL | Kd [4]: 0.6 nM | Kd [7]: 4 nM
B7: G47_B10/Vκ3 (antibody, V domains shown)
VH: B1 VH with F99A, D100E, L102T, S103T
VL: B1 VL
notes: Bivalent IgG4 with S241P, human kappa; also called SYNT002-8; G47_B10VH1_Vκ3
